Data on 24 molecules can be found in patent EP4534554A1 (Corregene Biotechnology Co., Ltd., dated 2025).

Where a chain is given by its changes, count along the chain named.

First the molecules themselves.
T1: MAGE-A1 peptide on HLA-A*02:01 (human)
T1 peptide: KVLEYVIKV

B1: A1A2-M01-612 (TCR, V domains shown)
Valpha: GEDVEQSLFLSVREGDSSVINCTYVDPYSTYLYWYKQEPGAGLQLLTYIFSFMDMKQDQRLTVLLNKKDKHLSLRIADTQTGDSAIYFCAGSGGGTDKLIFGTGTRLQVFP
Vbeta: GAVVSQHPSWVICKSGTSVKIECRSLDFEATTMFWYRQFPKQSLMLMATSNEGSKATYEQGVEKDKFLINHASLTLSTLTVTSAHPEDSSFYICSAREPWDPWYEQYFGPGTRLTVT
B2: A1A2-M01-616 (TCR, V domains shown)
Valpha: B1 Valpha with V25T, P27S, Y28S, S29Q, S51A, D54Q
Vbeta: B1 Vbeta with S50T, N51D, E52Y, W100G, D101Q, P102G, W103P, Y104W
B3: A1A2-M01-622 (TCR, V domains shown)
Valpha: B1 Valpha with V25T, P27S, Y28S, S51A, M53E, D54S
Vbeta: B1 Vbeta with S50T, N51D, E52Y, W100G, D101Q, P102G, W103P, Y104W
B4: A1A2-M01-614 (TCR, V domains shown)
Valpha: B1 Valpha with V25S, P27M, Y28L, S51I, M53Q, D54A
Vbeta: B1 Vbeta with S50T, N51D, E52Y, W100G, D101Q, P102G, W103P, Y104W
B5: A1A2-M01-620 (TCR, V domains shown)
Valpha: B1 Valpha with V25T, P27S, Y28S, S29Q, F52N
Vbeta: B1 Vbeta with S50T, N51D, E52Y, W100G, D101Q, P102A, Y104S, E105D
B6: A1A2-M01-621 (TCR, V domains shown)
Valpha: B1 Valpha with V25T, P27S, Y28E, S29F, S51A, M53E, D54S
Vbeta: B1 Vbeta with S50T, N51D, E52Y, W100G, D101Q, P102G, W103P, Y104W
B7: A1A2-M01-613 (TCR, V domains shown)
Valpha: B1 Valpha with V25T, P27S, Y28S, S29L
Vbeta: B1 Vbeta with E29Q, S50T, N51D, E52Y, W100G, D101Q, P102G, W103P, Y104W
B8: A1A2-M01-617 (TCR, V domains shown)
Valpha: B1 Valpha with V25P, P27M, Y28F, S51A, D54Q
Vbeta: B1 Vbeta with S54D, K55Q, W100G, D101Q, P102G, W103P, Y104W
B9: ht27M1457 (TCR, V domains shown)
Valpha: B1 Valpha with V25T, P27S, Y28S, F52N
Vbeta: B1 Vbeta with E29Q, S50T, N51D, E52Y, W100G, D101Q, P102G, W103P
B10: ht27M1381 (TCR, V domains shown)
Valpha: B1 Valpha with F52N
Vbeta: B1 Vbeta with E29Q, W100G, D101Q, P102G, W103P
B11: ht27M1557 (TCR, V domains shown)
Valpha: B1 Valpha with V25T, P27S, Y28S, F52N
Vbeta: B1 Vbeta with E29Q, W100G, D101Q, P102E, W103H, Y104L, E105I
B12: ht27M1387 (TCR, V domains shown)
Valpha: B1 Valpha with V25T, P27S, Y28S, F52N
Vbeta: B1 Vbeta with E29P, A30I, T31E, T32R, W100G, D101Q, P102G, W103P
B13: ht27M1398 (TCR, V domains shown)
Valpha: B1 Valpha with V25T, P27S, Y28S, F52N
Vbeta: B1 Vbeta with E29Q, S50T, E52L, G53P, W100G, D101Q, P102G, W103P
B14: ht27M1363 (TCR, V domains shown)
Valpha: B1 Valpha with V25T, P27S, Y28S, S51N, F52T, M53Q
Vbeta: B1 Vbeta with E29Q, W100G, D101Q, P102G, W103P
B15: ht27M1418 (TCR, V domains shown)
Valpha: B1 Valpha with V25T, P27S, Y28S, I49G, F50T, S51W, F52L
Vbeta: B1 Vbeta with E29Q, W100G, D101Q, P102G, W103P
B16: ht27M1365 (TCR, V domains shown)
Valpha: B1 Valpha with V25T, P27S, Y28S, M53T, D54Y
Vbeta: B1 Vbeta with E29Q, W100G, D101Q, P102G, W103P
B17: ht27M1436 (TCR, V domains shown)
Valpha: B1 Valpha with V25T, P27S, Y28S, I49T, S51W
Vbeta: B1 Vbeta with E29Q, W100G, D101Q, P102G, W103P
B18: ht27M1401 (TCR, V domains shown)
Valpha: B1 Valpha with V25T, P27S, Y28S, F52N
Vbeta: B1 Vbeta with E29Q, S50T, N51Q, E52P, G53L, W100G, D101Q, P102G, W103P
B19: ht27M1360 (TCR, V domains shown)
Valpha: B1 Valpha with V25T, P27S, Y28S, S51G, M53D, D54T
Vbeta: B1 Vbeta with E29Q, W100G, D101Q, P102G, W103P
B20: ht27M1362 (TCR, V domains shown)
Valpha: B1 Valpha with V25T, P27S, Y28S, S51I, M53Q, D54Y
Vbeta: B1 Vbeta with E29Q, W100G, D101Q, P102G, W103P
B21: ht27M1374 (TCR, V domains shown)
Valpha: B1 Valpha with V25T, P27S, Y28T, S29D, T30I, Y31L, F52N
Vbeta: B1 Vbeta with E29Q, W100G, D101Q, P102G, W103P
B22: ht27M1003 (TCR, V domains shown)
Valpha: B1 Valpha with V25T, P27S, Y28S, F52N
Vbeta: B1 Vbeta with E29Q, W100G, D101S, P102G, W103P
B23: A1A2-M01-626 (TCR, V domains shown)
Valpha: B1 Valpha with V25P, P27M, Y28F, S51A, D54Q
Vbeta: GAVVSQHPSWVICKSGTSVKIECRSLDFPIERMFWYRQFPKQSLMLMATTDYGSKATYEQGVEKDKFLINHASLTLSTLTVTSAHPEDSSFYICSAREPGQGPFEQYFGPGTRLTVT
B24: A1A2-M01-619 (TCR, V domains shown)
Valpha: B1 Valpha with V25T, P27S, Y28S, S29M
Vbeta: B23 Vbeta with P29E, I30A, E31T, R32T, F104Y

The first assay deals with MAGE-A1 Dextramer (human). As to the kind of experiment: KD-SPR estimated from Dextramer staining MFI by the linear formula of Figure 6; not measured by SPR.
Take B1: the dissociation constant Kd – broadly, the free concentration of one partner at which half of the binding sites on the other are occupied at equilibrium, for simple one-to-one binding – was 0.00294 nM.
Still for that read-out and setting: to B2 belongs 0.0186 nM.
Consider B3, for which the Kd was 0.028 nM.
On the same count and under the same terms, the figure for B4 is 0.208 nM; for B5 it is 0.524 nM.
B6: the dissociation constant (Kd) is 0.0747 nM.
In the case of B7, the equilibrium dissociation constant (Kd) was 0.0338 nM.
In the case of B8, the Kd is 0.0432 nM.

For another assay, the target named is MAGE-A1 target antigen peptide … presented by HLA-A*02:01 on cells (human). The assay can be described thus: cell-based or functional assay. Further details: EC50 Enhancement Factor: unit not given beside the values.
On to B9, for which the EC50 Enhancement Factor was determined as 352 and the EC50 Value (M), JKR9 reporter activation by peptide-loaded T2 cells was found to be 4.73e-08 M.
For B10, in that order: 131 and 1.28e-07 M.
As for B11, the EC50 Enhancement Factor worked out at 1120 and the EC50 Value (M), JKR9 reporter activation by peptide-loaded T2 cells came out at 1.49e-08 M.
On to B12, for which the EC50 Enhancement Factor is 131 and the EC50 Value (M), JKR9 reporter activation by peptide-loaded T2 cells is 1.28e-07 M.
Regarding B13, the EC50 Enhancement Factor worked out at 316 and the EC50 Value (M), JKR9 reporter activation by peptide-loaded T2 cells was 5.28e-08 M.
The like results for B14 were, in that order, 261 and 6.4e-08 M.
Turning to B15, the EC50 Enhancement Factor is 1650 and the EC50 Value (M), JKR9 reporter activation by peptide-loaded T2 cells is 1.01e-08 M.
For B16, in that order: 165 and 1.01e-07 M.
Consider B17, for which the EC50 Enhancement Factor came to 82.8 and the EC50 Value (M), JKR9 reporter activation by peptide-loaded T2 cells came to 2.02e-07 M.
B18: the EC50 Enhancement Factor stood at 184 and the EC50 Value (M), JKR9 reporter activation by peptide-loaded T2 cells came to 9.05e-08 M.
As for B19, the EC50 Enhancement Factor came to 277 and the EC50 Value (M), JKR9 reporter activation by peptide-loaded T2 cells worked out at 6.04e-08 M.
Consider B20, for which the EC50 Enhancement Factor stood at 419 and the EC50 Value (M), JKR9 reporter activation by peptide-loaded T2 cells came to 3.99e-08 M.
On to B21, for which the EC50 Enhancement Factor amounted to 153 and the EC50 Value (M), JKR9 reporter activation by peptide-loaded T2 cells was 1.09e-07 M.
On to B22, for which the EC50 Enhancement Factor came to 14 and the EC50 Value (M), JKR9 reporter activation by peptide-loaded T2 cells was determined as 1.17e-06 M.

Another assay has the same target. The assay can be described thus: cell-based or functional assay. The source holds these as a separate data set.
B1 registered an EC50 Value (M), JKR9 reporter activation by peptide-loaded T2 cells of 2.3e-08 M.
Still for that read-out and setting: the figure for B2 is 3.23e-08 M; for B3 it is 1.76e-08 M; for B4 it is 2.94e-08 M.
B5: the EC50 Value (M), JKR9 reporter activation by peptide-loaded T2 cells turned out to be 2.5e-08 M.
B6 had an EC50 Value (M), JKR9 reporter activation by peptide-loaded T2 cells of 3.57e-08 M.
In the case of B23, the EC50 Value (M), JKR9 reporter activation by peptide-loaded T2 cells was 2.26e-08 M.
As to B24, the EC50 Value (M), JKR9 reporter activation by peptide-loaded T2 cells came out at 2.74e-08 M.
Still for that read-out and setting: the figure for B7 is 2.62e-08 M; for B8 it is 2.61e-08 M.

A further assay deals with T1, MAGE-A1 peptide on HLA-A*02:01. As to the kind of experiment: KD-SPR estimated from Dextramer MFI by the formula calibrated on gp100 TCRs, not measured; unit inferred; full-length, on cells.
Take B1: the dissociation constant Kd is about 0.00294 nM.
As to B2, the equilibrium dissociation constant (Kd) is about 0.0186 nM.
B3: the Kd was about 0.028 nM.
Still for that read-out and setting: to B4 belongs about 0.208 nM.
Consider B5, for which the dissociation constant (Kd) is about 0.524 nM.
For B6, the Kd is about 0.0747 nM.
As to B7, the Kd is about 0.0338 nM.
Still for that read-out and setting: to B8 belongs about 0.0432 nM.

For a further assay the target is unchanged. As to the kind of experiment: JKR9 reporter + peptide-loaded T2, 16 h; full-length, on cells.
Consider B1, for which the EC50 of peptide turned out to be 23 nM.
On to B2, for which the EC50 of peptide was determined as 32.3 nM.
As to B3, the EC50 of peptide worked out at 17.6 nM.
As for B4, the EC50 of peptide stood at 29.4 nM.
Consider B5, for which the EC50 of peptide came out at 25 nM.
Take B6: the EC50 of peptide was 35.7 nM.
Turning to B23, the EC50 of peptide was found to be 22.6 nM.
On to B24, for which the EC50 of peptide was 27.4 nM.
On to B7, for which the EC50 of peptide amounted to 26.2 nM.
Same read-out and setting: to B8 belongs 26.1 nM.

A further assay has the same target. The assay can be described thus: MAGE-A1 Dextramer gradient on transduced JKR9; unit inferred; full-length, on cells.
Consider B1, for which the “EC50 of Dextramer staining” value was 0.0475 nM.
Regarding B2, the “EC50 of Dextramer staining” value stood at 0.0808 nM.
Regarding B3, the “EC50 of Dextramer staining” value was 0.0911 nM.
Turning to B4, the “EC50 of Dextramer staining” value amounted to 0.163 nM.
Take B5: the “EC50 of Dextramer staining” value was found to be 0.212 nM.
Turning to B6, the “EC50 of Dextramer staining” value stood at 0.121 nM.
B7: the “EC50 of Dextramer staining” value worked out at 0.0961 nM.
Take B8: the “EC50 of Dextramer staining” value stood at 0.103 nM.

For the next assay the target is unchanged. The assay can be described thus: JKR9 reporter + peptide-loaded T2, 16 h; full-length, on cells. The source holds these as a separate data set.
As for B9, the EC50 of peptide is 47.3 nM.
As to B10, the EC50 of peptide amounted to 128 nM.
In the case of B11, the EC50 of peptide stood at 14.9 nM.
As to B12, the EC50 of peptide turned out to be 128 nM.
In the case of B13, the EC50 of peptide is 52.8 nM.
Same read-out and setting: the figure for B14 is 64 nM.
On the same count and under the same terms, the figure for B15 is 10.1 nM; for B16 it is 101 nM; for B17 it is 202 nM.
With B18, the EC50 of peptide was found to be 90.5 nM.
Take B19: the EC50 of peptide came out at 60.4 nM.
For the molecule B20, the EC50 of peptide was found to be 39.9 nM.
Regarding B21, the EC50 of peptide came out at 109 nM.
As to B22, the EC50 of peptide turned out to be 1170 nM.

The target of a further assay is MAGE-A1 Dextramer (human). As to the kind of experiment: MAGE-A1 Dextramer gradient staining (MFI) of cells expressing the TCR, flow cytometry. On the technique in general: In flow cytometry, cells or beads pass a laser one at a time.
B1: the EC50 (in general, the concentration giving half of the maximal effect) is 0.0475 nM.
Consider B2, for which the EC50 was 0.0808 nM.
Same read-out and setting: to B3 belongs 0.0911 nM.
Still for that read-out and setting: the figure for B4 is 0.163 nM; for B5 it is 0.212 nM; for B6 it is 0.121 nM.
As to B7, the EC50 worked out at 0.0961 nM.
Take B8: the half-maximal effective concentration (EC50) stood at 0.103 nM.
